Data published in patent US20030036092A1.

Biological target: fluorogenic OmpT peptide substrate (BODIPY / trimethylrhodamine)
Assay: cell-based or functional assay

“OmpT protease, wild type, expressed from multicopy plasmid pML19 in E. coli UT5600 (from UniProt P09169 21-317) (enzyme)” was tested, and the mean fluorescence intensity of cells by FACS after exposure to the fluorogenic substrate was 30 times.
